Reference: patent US20060105414

T1: GST-IκBα (1-54), regulatory domain of IκBα, P25963
T1 chain: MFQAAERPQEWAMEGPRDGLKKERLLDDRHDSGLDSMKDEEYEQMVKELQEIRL

T2: GST-NF-κB2 (754-900) (p100C), C terminal regulatory domain of NF-κB2, Q00653
T2 chain: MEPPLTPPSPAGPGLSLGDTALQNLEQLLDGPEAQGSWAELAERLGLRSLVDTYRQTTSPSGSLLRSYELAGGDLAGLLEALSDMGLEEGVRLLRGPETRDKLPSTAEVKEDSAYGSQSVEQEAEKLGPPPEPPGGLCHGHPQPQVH

B1: NF-κB inducing kinase (NIK), recombinant, immunopurified, produced in Sf9 cells using baculoviruses (protein)
chain: MAVMEMACPGAPGSAVGQQKELPKAKEKTPPLGKKQSSVYKLEAVEKSPVFCGKWEILNDVITKGTAKEGSEAGPAAISIIAQAECENSQEFSPTFSERIFIAGSKQYSQSESLDQIPNNVAHATEGKMARVCWKGKRRSKARKKRKKKSSKSLAHAGVALAKPLPRTPEQESCTIPVQEDESPLGAPYVRNTPQFTKPLKEPGLGQLCFKQLGEGLRPALPRSELHKLISPLQCLNHVWKLHHPQDGGPLPLPTHPFPYSRLPHPFPFHPLQPWKPHPLESFLGKLACVDSQKPLPDPHLSKLACVDSPKPLPGPHLEPSCLSRGAHEKFSVEEYLVHALQGSVSSGQAHSLTSLAKTWAARGSRSREPSPKTEDNEGVLLTEKLKPVDYEYREEVHWATHQLRLGRGSFGEVHRMEDKQTGFQCAVKKVRLEVFRAEELMACAGLTSPRIVPLYGAVREGPWVNIFMELLEGGSLGQLVKEQGCLPEDRALYYLGQALEGLEYLHSRRILHGDVKADNVLLSSDGSHAALCDFGHAVCLQPDGLGKSLLTGDYIPGTETHMAPEVVLGRSCDAKVDVWSSCCMMLHMLNGCHPWTQFFRGPLCLKIASEPPPVREIPPSCAPLTAQAIQEGLRKEPIHRVSAAELGGKVNRALQQVGGLKSPWRGEYKEPRHPPPNQANYHQTLHAQPRELSPRAPGPRPAEETTGRAPKLQPPLPPEPPEPNKSPPLTLSKEESGMWEPLPLSSLEPAPARNPSSPERKATVPEQELQQLEIELFLNSLSQPFSLEEQEQILSCLSIDSLSLSDDSEKNPSKASQSSRDTLSSGVHSWSSQAEARSSSWNMVLARGRPTDTPSYFNGVKVQIQSLNGEHLHIREFHRVKVGDIATGISSQIPAAAFSLVTKDGQPVRYDMEVPDSGIDLQCTLAPDGSFAWSWRVKHGQLENRP
B2: IκB kinase α (IKKα), recombinant, chromatographically pure, produced in Sf9 cells using baculoviruses (protein)
chain: MERPPGLRPGAGGPWEMRERLGTGGFGNVCLYQHRELDLKIAIKSCRLELSTKNRERWCHEIQIMKKLNHANVVKACDVPEELNILIHDVPLLAMEYCSGGDLRKLLNKPENCCGLKESQILSLLSDIGSGIRYLHENKIIHRDLKPENIVLQDVGGKIIHKIIDLGYAKDVDQGSLCTSFVGTLQYLAPELFENKPYTATVDYWSFGTMVFECIAGYRPFLHHLQPFTWHEKIKKKDPKCIFACEEMSGEVRFSSHLPQPNSLCSLIVEPMENWLQLMLNWDPQQRGGPVDLTLKQPRCFVLMDHILNLKIVHILNMTSAKIISFLLPPDESLHSLQSRIERETGINTGSQELLSETGISLDPRKPASQCVLDGVRGCDSYMVYLFDKSKTVYEGPFASRSLSDCVNYIVQDSKIQLPIIQLRKVWAEAVHYVSGLKEDYSRLFQGQRAAMLSLLRYNANLTKMKNTLISASQQLKAKLEFFHKSIQLDLERYSEQMTYGISSEKMLKAWKEMEEKAIHYAEVGVIGYLEDQIMSLHAEIMELQKSPYGRRQGDLMESLEQRAIDLYKQLKHRPSDHSYSDSTEMVKIIVHTVQSQDRVLKELFGHLSKLLGCKQKIIDLLPKVEVALSNIKEADNTVMFMQGKRQKEIWHLLKIACTQSSARSLVGSSLEGAVTPQTSAWLPPTSAEHDHSLSCVVTPQDGETSAQMIEENLNCLGHLSTIIHEANEEQGNSMMNLDWSWLTE
B3: IKKβ, recombinant, chromatographically pure, produced in Sf9 cells using baculoviruses (protein)
chain: MSWSPSLTTQTCGAWEMKERLGTGGFGNVIRWHNQETGEQIAIKQCRQELSPRNRERWCLEIQIMRRLTHPNVVAARDVPEGMQNLAPNDLPLLAMEYCQGGDLRKYLNQFENCCGLREGAILTLLSDIASALRYLHENRIIHRDLKPENIVLQQGEQRLIHKIIDLGYAKELDQGSLCTSFVGTLQYLAPELLEQQKYTVTVDYWSFGTLAFECITGFRPFLPNWQPVQWHSKVRQKSEVDIVVSEDLNGTVKFSSSLPYPNNLNSVLAERLEKWLQLMLMWHPRQRGTDPTYGPNGCFKALDDILNLKLVHILNMVTGTIHTYPVTEDESLQSLKARIQQDTGIPEEDQELLQEAGLALIPDKPATQCISDGKLNEGHTLDMDLVFLFDNSKITYETQISPRPQPESVSCILQEPKRNLAFFQLRKVWGQVWHSIQTLKEDCNRLQQGQRAAMMNLLRNNSCLSKMKNSMASMSQQLKAKLDFFKTSIQIDLEKYSEQTEFGITSDKLLLAWREMEQAVELCGRENEVKLLVERMMALQTDIVDLQRSPMGRKQGGTLDDLEEQARELYRRLREKPRDQRTEGDSQEMVRLLLQAIQSFEKKVRVIYTQLSKTVVCKQKALELLPKVEEVVSLMNEDEKTVVRLQEKRQKELWNLLKIACSKVRGPVSGSPDSMNASRLSQPGQLMSQPSTASNSLPEPAKKSEELVAEAHNLCTLLENAIQDTVREQDQSFTALDWSWLQTEEEEHSCLEQAS

Legend:
[1] = target: T1, GST-IκBα (1-54), regulatory domain of …
[2] = target: T2, GST-NF-κB2 (754-900) (p100C), C …

Row | Protein | phosphorylation of GST-IκBα (1-54) in an in vitro kinase assay [1] | phosphorylation of the NF-κB2 C-terminal regulatory domain in vitro [2] | phosphorylation of GST-NF-κB2 (754-900) (p100C) in an in vitro kinase assay [2]
1 | B1 | not at all by NIK | both NIK and IKKα phosphorylate the C-terminal regulatory domain of NF-κB2 | –
2 | B2 | the regulatory domain of Iκ Bα was phosphorylated more efficiently by IKKβ than by IKKα | IKK is a more effective NF-B2 C-terminal kinase than NIK | the C terminal regulatory domain of NF-κB2 was phosphorylated most efficiently by IKKα
3 | B3 | the regulatory domain of Iκ Bα was phosphorylated more efficiently by IKKβ than by IKKα | – | –
